From US20100203083A1 come the findings set out here.

In experiment [1] the target is purified αVβ3 integrin (CHEMICON) (UniProt P06756).
Experiment [2] addresses AAV-amyloid-453-587 (AAV-2; human) (UniProt P03135).

“AAV2 RGD4C 453 A2 (from UniProt P03135 1-453; P03135 454-735) (other; other documents disagree on this pair)” showed a fold increase of binding activity against RGD4C 453 in experiment [1] of 50 fold.
Regarding “anti-β-amyloid mAb 6E10 (CHEMICON) (antibody)”, the fold higher affinity against the I-587-insertion mutant (AAV-amyloid-587) in experiment [2] is above 2 fold.
